B1: TetRrev29/25: revTetR(BD) G21- I22- E23- G24S (protein)
chain: MSRLDKSKVINSALELLNEVSLTTRKLAQKLGVEQPTLYWHVKNKRALLDALAVEILARHHDYSLPAAGESWQSFLRNNAMSFRRALLRYRDGAKVHLGTRPDEKQYDTVETQLRFMTENGFSLRDGLYAISAVSHFTLGAVLEQQEHTAALTDRPAAPDENLPPLLREALQIMDSDDGEQAFLHGLESLIRGFEVQLTALLQIV
modifications: Modified tetracycline repressor
notes: revTetR(BD) G21- I22- E23- G24S
B2: TetRrev29/9: revTetR(BD) L17V N18Y G21G I22T (protein)
chain: MSRLDKSKVINSALELVYEVGTEGLTTRKLAQKLGVEQPTLYWHVKNKRALLDALAVEILARHHDYSLPAAGESWQSFLRNNAMSFRRALLRYRDGAKVHLGTRPDEKQYDTVETQLRFMTENGFSLRDGLYAISAVSHFTLGAVLEQQEHTAALTDRPAAPDENLPPLLREALQIMDSDDGEQAFLHGLESLIRGFEVQLTALLQIV
modifications: Modified tetracycline repressor
notes: revTetR(BD) L17V N18Y G21G I22T
B3: TetRrev29/27: revTetR(BD) L14E V20G (protein)
chain: MSRLDKSKVINSAEELLNEGGIEGLTTRKLAQKLGVEQPTLYWHVKNKRALLDALAVEILARHHDYSLPAAGESWQSFLRNNAMSFRRALLRYRDGAKVHLGTRPDEKQYDTVETQLRFMTENGFSLRDGLYAISAVSHFTLGAVLEQQEHTAALTDRPAAPDENLPPLLREALQIMDSDDGEQAFLHGLESLIRGFEVQLTALLQIV
modifications: Modified tetracycline repressor
notes: revTetR(BD) L14E V20G
B4: TetRrev29/24: revTetR(BD) E15V L17F N18Y I22M E23K (protein)
chain: MSRLDKSKVINSALVLFYEVGMKGLTTRKLAQKLGVEQPTLYWHVKNKRALLDALAVEILARHHDYSLPAAGESWQSFLRNNAMSFRRALLRYRDGAKVHLGTRPDEKQYDTVETQLRFMTENGFSLRDGLYAISAVSHFTLGAVLEQQEHTAALTDRPAAPDENLPPLLREALQIMDSDDGEQAFLHGLESLIRGFEVQLTALLQIV
modifications: Modified tetracycline repressor
notes: revTetR(BD) E15V L17F N18Y I22M E23K
B5: TetRrev29/35: revTetR(BD) L17S E23D (protein)
chain: MSRLDKSKVINSAEELSNEGGIDGLTTRKLAQKLGVEQPTLYWHVKNKRALLDALAVEILARHHDYSLPAAGESWQSFLRNNAMSFRRALLRYRDGAKVHLGTRPDEKQYDTVETQLRFMTENGFSLRDGLYAISAVSHFTLGAVLEQQEHTAALTDRPAAPDENLPPLLREALQIMDSDDGEQAFLHGLESLIRGFEVQLTALLQIV
modifications: Modified tetracycline repressor
notes: revTetR(BD) L17S E23D
B6: TetRrev29/17: revTetR(BD) L17S E23D (protein)
chain: MSRLDKSKVINSALELSNEVGIDGLTTRKLAQKLGVEQPTLYWHVKNKRALLDALAVEILARHHDYSLPAAGESWQSFLRNNAMSFRRALLRYRDGAKVHLGTRPDEKQYDTVETQLRFMTENGFSLRDGLYAISAVSHFTLGAVLEQQEHTAALTDRPAAPDENLPPLLREALQIMDSDDGEQAFLHGLESLIRGFEVQLTALLQIV
modifications: Modified tetracycline repressor
notes: revTetR(BD) L17S E23D

Tested on: tet operator sequence
Assay: β-galactosidase activity of a tetracycline-regulated promoter in transformed E. coli with revTetR, in the presence and absence of anhydrotetracycline (atc)
Type: cell-based, Escherichia coli
Conditions: for β-Galactosidase Activity, Cultured Without ATC: RevTetR isolate cultured in the absence of anhydrotetracycline (ATC); for β-Galactosidase Activity, Cultured With ATC: RevTetR isolate cultured in the presence of anhydrotetracycline (ATC)
How it was run: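 TetR(BD) chimera mutants (TetR(B) residues 1–50, TetR(D) 51–208) expressed in E. coli regulating a tet operator-controlled lacZ. β-Galactosidase measured in Miller units at 28 °C and 37 °C with and without anhydrotetracycline; reported as percent of maximal expression without Tet repressor.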

| Molecule | β-Galactosidase Activity, Cultured Without ATC | β-Galactosidase Activity, Cultured With ATC |
| --- | --- | --- |
| B1 | 92.9327 | 3.112 |
| B2 | 74.4357 | 11.772 |
| B3 | 82.7579 | 9.453 |
| B4 | 85.5708 | 7.9819 |
| B5 | 58.0891 | 2.1051 |
| B6 | 44.6409 | 1.7738 |
